Assay results taken from US20100129369A1 (Eli Lilly, published 2010).

Columns and labels:
human c-Met ECD-Fc-Flis [1] = target: T1, human c-Met ECD-Fc-Flis (human); test: HGF-blocking ELISA: HGF signal on coated c-Met ECD-Fc-Flis; Ab 0.48 ng/mL
T1 construct: c-Met ECD fused to Fc with flag- and His-tag at the C-terminus; also called human c-Met extracellular domain (ECD)-Fc-Flis fusion; human c-Met-Flis-Fc ECD
Protocol: (§1) Wells of 96-well EIA/RIA high binding plates (Costar, #2592) are coated with 100 μL of human c-Met ECD-Fc-Flis (SEQ ID NO:72) (2 μg/mL) in Dulbecco's phosphate buffered saline (DPBS) overnight at room temperature; washed four times with wash buffer (Tris-buffered saline, pH 8.0, with 0.05% (v/v) polysorbate 20 (TWEEN®-20) (TBS-T) (BioFX Labs, # WSHW-1000-01) in a plate washer; blocked by adding 300 μL of blocking buffer (TBS-T plus 1% (w/v) bovine serum albumin (BSA) (Jackson Immuno, #001-000-162); and incubating for 60 min. at 37° C. Blocking buffer is then removed from the wells and 50 μL of antibodies in blocking buffer at final concentrations as indicated in Table 7 are added into each well, respectively. […] The plates with c-Met antibodies are incubated for 90 min. at 37° C. […] The wells are then washed four times with TBS-T in a plate washer. […] The plates are incubated for 90 min. at room temperature. The wells are again washed four times with TBS-T in a plate washer. 100 μL of a 1:200 dilution of streptavidin-horseradish peroxidase (HRP) (R&D Systems, DY998) in blocking buffer are added to each well. The plates are incubated for 30 min. at room temperature. The wells are washed four times with TBS-T in a plate washer. 100 μL/well of substrate solution (BioFx, #TMBW-1000-01) are then added, and the plates are incubated for 10 min. at room temperature. To stop the reaction, 100 μL/well of stop solution (BioFx, # LSTP-1000-01) are added. The samples are read at a wavelength of 450-570 nm on a microplate reader (Spectra, MAX 190) and no background is subtracted.

human c-Met ECD-Fc-Flis [2] = target: T1, human c-Met ECD-Fc-Flis; test: HGF-blocking ELISA: HGF signal on coated c-Met ECD-Fc-Flis; Ab 1.91 ng/mL
Protocol: as §1

human c-Met ECD-Fc-Flis [3] = target: T1, human c-Met ECD-Fc-Flis; test: HGF-blocking ELISA: HGF signal on coated c-Met ECD-Fc-Flis; Ab 7812.50 ng/mL
Protocol: as §1

human c-Met ECD-Fc-Flis [4] = target: T1, human c-Met ECD-Fc-Flis; test: HGF-blocking ELISA: HGF signal on coated c-Met ECD-Fc-Flis; Ab 488.28 ng/mL
Protocol: as §1

human c-Met ECD-Fc-Flis [5] = target: T1, human c-Met ECD-Fc-Flis; test: HGF-blocking ELISA: HGF signal on coated c-Met ECD-Fc-Flis; Ab 122.07 ng/mL
Protocol: as §1

human c-Met ECD-Fc-Flis [6] = target: T1, human c-Met ECD-Fc-Flis; test: HGF-blocking ELISA: HGF signal on coated c-Met ECD-Fc-Flis; Ab 0.00 ng/mL (HGF only)
Protocol: as §1

human c-Met ECD-Fc-Flis [7] = target: T1, human c-Met ECD-Fc-Flis; test: HGF-blocking ELISA: HGF signal on coated c-Met ECD-Fc-Flis; Ab 1953.13 ng/mL
Protocol: as §1

human c-Met ECD-Fc-Flis [8] = target: T1, human c-Met ECD-Fc-Flis; test: HGF-blocking ELISA: HGF signal on coated c-Met ECD-Fc-Flis; Ab 30.52 ng/mL
Protocol: as §1

human c-Met ECD-Fc-Flis [9] = target: T1, human c-Met ECD-Fc-Flis; test: HGF-blocking ELISA: HGF signal on coated c-Met ECD-Fc-Flis; Ab 7.63 ng/mL
Protocol: as §1

human c-Met ECD-Fc-Flis [10] = target: T1, human c-Met ECD-Fc-Flis; test: HGF-blocking ELISA: HGF signal on coated c-Met ECD-Fc-Flis; Ab 125000.00 ng/mL
Protocol: as §1

human c-Met [11] = target: T2, human c-Met (human, UniProt P08581 25-1390); test: cell-based or functional assay
human c-Met [12] = target: T2, human c-Met; test: cell-based or functional assay; remark: listed apart in the source
human c-Met ECD-Fc-Flis [13] = target: T1, human c-Met ECD-Fc-Flis; test: HGF-blocking ELISA: HGF signal on coated c-Met ECD-Fc-Flis; Ab 31250.00 ng/mL
Protocol: as §1

human c-Met [14] = target: T2, human c-Met; test: cell-based or functional assay; remark: listed apart in the source

T1 sequence (chain, as listed by the source): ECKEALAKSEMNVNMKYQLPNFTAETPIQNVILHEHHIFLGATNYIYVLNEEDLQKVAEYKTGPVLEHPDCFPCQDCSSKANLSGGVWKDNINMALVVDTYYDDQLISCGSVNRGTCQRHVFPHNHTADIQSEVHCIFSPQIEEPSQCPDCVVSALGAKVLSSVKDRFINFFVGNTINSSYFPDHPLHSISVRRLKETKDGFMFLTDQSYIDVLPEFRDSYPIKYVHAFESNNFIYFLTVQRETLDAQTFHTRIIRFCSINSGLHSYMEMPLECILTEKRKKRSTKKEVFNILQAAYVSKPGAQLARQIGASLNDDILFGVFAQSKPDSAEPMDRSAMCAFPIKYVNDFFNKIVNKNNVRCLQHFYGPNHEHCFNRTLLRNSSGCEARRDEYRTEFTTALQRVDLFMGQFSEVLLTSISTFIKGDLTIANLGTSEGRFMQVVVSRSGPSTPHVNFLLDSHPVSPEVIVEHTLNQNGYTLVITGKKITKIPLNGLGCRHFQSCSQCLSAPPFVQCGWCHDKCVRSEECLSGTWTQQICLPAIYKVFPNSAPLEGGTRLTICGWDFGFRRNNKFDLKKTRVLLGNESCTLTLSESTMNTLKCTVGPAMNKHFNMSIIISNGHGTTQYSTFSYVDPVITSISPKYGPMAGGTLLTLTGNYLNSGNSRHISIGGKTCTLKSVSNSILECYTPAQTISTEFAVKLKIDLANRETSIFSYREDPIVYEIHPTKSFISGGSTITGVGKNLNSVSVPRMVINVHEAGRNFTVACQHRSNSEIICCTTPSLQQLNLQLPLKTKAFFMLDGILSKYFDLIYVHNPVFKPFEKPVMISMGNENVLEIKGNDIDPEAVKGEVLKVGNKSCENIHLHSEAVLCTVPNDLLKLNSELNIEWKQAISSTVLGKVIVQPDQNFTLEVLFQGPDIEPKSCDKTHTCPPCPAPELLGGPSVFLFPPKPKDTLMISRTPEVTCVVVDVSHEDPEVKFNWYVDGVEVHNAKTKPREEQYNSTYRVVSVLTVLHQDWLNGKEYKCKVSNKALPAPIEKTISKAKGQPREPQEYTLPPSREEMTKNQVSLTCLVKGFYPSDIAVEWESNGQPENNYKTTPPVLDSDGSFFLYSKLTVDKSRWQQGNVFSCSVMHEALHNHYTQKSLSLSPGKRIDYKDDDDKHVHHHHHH
T2 sequence (P08581 25-1390): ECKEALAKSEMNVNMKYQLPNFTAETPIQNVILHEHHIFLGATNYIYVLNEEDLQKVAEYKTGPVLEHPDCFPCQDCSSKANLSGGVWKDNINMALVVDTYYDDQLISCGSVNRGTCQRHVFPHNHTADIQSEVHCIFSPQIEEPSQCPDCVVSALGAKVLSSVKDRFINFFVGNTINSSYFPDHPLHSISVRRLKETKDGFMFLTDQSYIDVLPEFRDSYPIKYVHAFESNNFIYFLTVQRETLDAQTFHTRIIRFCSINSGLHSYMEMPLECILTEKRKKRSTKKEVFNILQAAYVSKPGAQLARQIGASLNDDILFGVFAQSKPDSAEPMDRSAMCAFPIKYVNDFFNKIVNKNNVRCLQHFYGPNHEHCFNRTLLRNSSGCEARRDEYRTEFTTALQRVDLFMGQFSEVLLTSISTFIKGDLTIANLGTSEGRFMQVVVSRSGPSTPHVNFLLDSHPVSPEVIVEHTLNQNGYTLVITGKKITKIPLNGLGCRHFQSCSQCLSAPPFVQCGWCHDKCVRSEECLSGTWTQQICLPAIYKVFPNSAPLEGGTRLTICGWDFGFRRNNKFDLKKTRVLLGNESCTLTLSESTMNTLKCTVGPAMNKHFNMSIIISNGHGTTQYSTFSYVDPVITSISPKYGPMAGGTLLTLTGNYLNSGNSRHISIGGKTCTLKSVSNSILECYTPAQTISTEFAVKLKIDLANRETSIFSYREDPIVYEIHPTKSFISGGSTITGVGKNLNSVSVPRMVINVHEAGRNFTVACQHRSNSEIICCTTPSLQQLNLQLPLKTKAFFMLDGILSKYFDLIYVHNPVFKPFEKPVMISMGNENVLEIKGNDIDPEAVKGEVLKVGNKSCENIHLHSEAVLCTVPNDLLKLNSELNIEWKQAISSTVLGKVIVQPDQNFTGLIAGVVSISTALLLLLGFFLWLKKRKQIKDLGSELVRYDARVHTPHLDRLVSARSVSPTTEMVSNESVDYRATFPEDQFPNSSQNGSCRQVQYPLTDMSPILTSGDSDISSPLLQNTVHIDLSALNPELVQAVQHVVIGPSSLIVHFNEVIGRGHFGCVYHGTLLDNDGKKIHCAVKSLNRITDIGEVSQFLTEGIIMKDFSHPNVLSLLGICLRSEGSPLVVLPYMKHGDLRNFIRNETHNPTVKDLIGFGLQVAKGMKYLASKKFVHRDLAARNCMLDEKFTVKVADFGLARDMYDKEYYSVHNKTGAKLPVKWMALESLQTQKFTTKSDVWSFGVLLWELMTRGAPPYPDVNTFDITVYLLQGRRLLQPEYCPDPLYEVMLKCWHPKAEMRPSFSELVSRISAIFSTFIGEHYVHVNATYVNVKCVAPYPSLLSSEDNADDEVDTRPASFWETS

Row | AVG A450 nm (human c-Met ECD-Fc-Flis [1]) [A450 nm] | AVG A450 nm (human c-Met ECD-Fc-Flis [2]) [A450 nm] | AVG A450 nm (human c-Met ECD-Fc-Flis [3]) [A450 nm] | AVG A450 nm (human c-Met ECD-Fc-Flis [4]) [A450 nm] | AVG A450 nm (human c-Met ECD-Fc-Flis [5]) [A450 nm] | AVG A450 nm (human c-Met ECD-Fc-Flis [6]) [A450 nm] | AVG A450 nm (human c-Met ECD-Fc-Flis [7]) [A450 nm] | AVG A450 nm (human c-Met ECD-Fc-Flis [8]) [A450 nm] | AVG A450 nm (human c-Met ECD-Fc-Flis [9]) [A450 nm] | AVG A450 nm (human c-Met ECD-Fc-Flis [10]) [A450 nm] | Binder | further results
1 | 2.45 | 2.46 | 0.7 | 0.73 | 1.77 | 2.61 | 0.68 | 2.42 | 2.53 | 0.69 | C8-H241 (antibody, human IgG2, kappa, V domains shown, Named IgG4 kappa; also called Mab C8-H241) VH: QVQLVQSGAEVKKPGASVKVSCKASGYTFTDYYMHWVRQAPGQGLEWMGRVNPNRRGTTYNQKFEGRVTMTTDTSTSTAYMELRSLRSDDTAVYYCARANWLDYWGQGTTVTVSS VL: DIQMTQSPSSLSASVGDRVTITCSVSSSVSSIYLHWYQQKPGKAPKLLIYSTSNLASGVPSRFSGSGSGTDFTLTISSLQPEDFATYYCQVYSGYPLTFGGGTKVEIKR | –
2 | 2.56 | 2.59 | 0.95 | 1.33 | 2 | 2.61 | 1.08 | 2.42 | 2.64 | 1.32 | C8-6 (antibody, human IgG2, kappa, V domains shown, Named IgG4 kappa; also called C8-6 IgG4) VH: QVQLVQSGAEVKKPGASVKVSCKASGYTFTDYYMHWVRQAPGQGLEWMGRVNPNRGGTTYNQKFEGRVTMTTDTSTSTAYMELRSLRSDDTAVYYCARTNWLDYWGQGTTVTVSS VL: DIQMTQSPSSLSASVGDRVTITCSVSSSVSSIYLHWYQQKPGKAPKLLIYSTSNLASGVPSRFSGSGSGTDFTLTISSLQPEDFATYYCIQYSGYPLTFGGGTKVEIKR | % inhibition of HGF stimulated phospho-Met (ELISA, HCT116 cells), Ab 0.0032 µg/mL (human c-Met [11]): -11.3%; % inhibition of HGF stimulated phospho-Met (ELISA, HCT116 cells), Ab 0.016 µg/mL (human c-Met [11]): -6.06%; % inhibition of HGF stimulated phospho-Met (ELISA, HCT116 cells), Ab 0.08 µg/mL (human c-Met [11]): 7.79%; % inhibition of HGF stimulated phospho-Met (ELISA, HCT116 cells), Ab 0.4 µg/mL (human c-Met [11]): 16.8%; % inhibition of HGF stimulated phospho-Met (ELISA, HCT116 cells), Ab 2 µg/mL (human c-Met [11]): 27.9%; % inhibition of HGF stimulated phospho-Met (ELISA, HCT116 cells), Ab 10 µg/mL (human c-Met [11]): 14.9%; Mean Fluorescence (c-Met left on the surface of MKN45 cells, FACS), Ab 5.00 ug/mL (human c-Met [12]): 67.9; AVG A450 nm (human c-Met ECD-Fc-Flis [13]): 0.98 A450 nm; AVG CPM, 3H-thymidine incorporation in MKN45 cells, Ab 0.0 ng/mL (no antibody) (human c-Met [14]): 48700 CPM; AVG CPM, 3H-thymidine incorporation in MKN45 cells, Ab 0.1 ng/mL (human c-Met [14]): 51700 CPM; AVG CPM, 3H-thymidine incorporation in MKN45 cells, Ab 0.4 ng/mL (human c-Met [14]): 53400 CPM; AVG CPM, 3H-thymidine incorporation in MKN45 cells, Ab 2.6 ng/mL (human c-Met [14]): 54600 CPM; AVG CPM, 3H-thymidine incorporation in MKN45 cells, Ab 15.4 ng/mL (human c-Met [14]): 44800 CPM; AVG CPM, 3H-thymidine incorporation in MKN45 cells, Ab 92.6 ng/mL (human c-Met [14]): 23000 CPM; AVG CPM, 3H-thymidine incorporation in MKN45 cells, Ab 555.6 ng/mL (human c-Met [14]): 18300 CPM; AVG CPM, 3H-thymidine incorporation in MKN45 cells, Ab 3333.3 ng/mL (human c-Met [14]): 18200 CPM; AVG CPM, 3H-thymidine incorporation in MKN45 cells, Ab 20000.0 ng/mL (human c-Met [14]): 16400 CPM
